Laboratory results as given in the supplement of paper PMC9876800.

Test system: peptide library, one residue held at a place counted from the S/T acceptor
Experiment: relative phosphorylation of the sub-library (ratio to the mean residue at this position); higher = residue favoured
Settings: human
Summary of the method: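 Human or orthologue kinase constructs, purified and recombinant, were incubated under kinase-specific conditions in 384-well plates with biotinylated degenerate peptide sub-libraries. Each sub-library fixed one residue at one position around a central Ser/Thr. Incubations lasted 90 min with peptides at 50 μM and 50 μM ATP spiked with γ-32P-ATP, after which spots on streptavidin membranes were phosphorimaged and quantified by densitometry. Relative sub-library phosphorylation is a ratio to the mean residue at that position.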

Sequence of CDK6, construct: Full length (Q00534 whole entry, looked up): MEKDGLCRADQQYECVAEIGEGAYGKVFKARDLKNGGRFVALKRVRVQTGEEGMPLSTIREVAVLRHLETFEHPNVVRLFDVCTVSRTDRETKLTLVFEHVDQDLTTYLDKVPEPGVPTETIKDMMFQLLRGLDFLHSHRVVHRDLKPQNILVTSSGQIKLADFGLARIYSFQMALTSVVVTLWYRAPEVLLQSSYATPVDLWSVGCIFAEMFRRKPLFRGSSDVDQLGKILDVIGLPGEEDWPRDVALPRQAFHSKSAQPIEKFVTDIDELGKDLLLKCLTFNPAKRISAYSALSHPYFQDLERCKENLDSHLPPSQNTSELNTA
Sequence of MAPK15, construct: Full length (Q8TD08 whole entry, looked up): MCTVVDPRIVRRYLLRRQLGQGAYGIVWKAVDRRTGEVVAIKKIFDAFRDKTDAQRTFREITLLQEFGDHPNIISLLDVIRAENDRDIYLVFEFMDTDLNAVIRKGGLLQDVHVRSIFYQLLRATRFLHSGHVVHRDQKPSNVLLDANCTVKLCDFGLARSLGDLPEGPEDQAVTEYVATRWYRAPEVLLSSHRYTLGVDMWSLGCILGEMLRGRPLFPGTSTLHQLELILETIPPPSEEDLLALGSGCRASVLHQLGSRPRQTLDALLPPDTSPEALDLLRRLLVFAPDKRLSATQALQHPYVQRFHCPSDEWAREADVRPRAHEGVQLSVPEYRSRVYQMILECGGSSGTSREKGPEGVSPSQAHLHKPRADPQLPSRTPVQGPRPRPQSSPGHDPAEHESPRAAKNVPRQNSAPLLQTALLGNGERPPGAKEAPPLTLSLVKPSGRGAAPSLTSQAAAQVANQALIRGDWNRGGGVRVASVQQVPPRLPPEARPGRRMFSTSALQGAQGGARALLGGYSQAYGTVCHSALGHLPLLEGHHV

MAPK15, construct: Full length (from UniProt Q8TD08)
relative phosphorylation
Settings | at +1 | at +2 | at +3 | at +4 | at -1 | at -2 | at -3 | at -4 | at -5
A fixed | 1.98 | 0.19 | 1.12 | 1.12 | 0.933 | 1.36 | 1.3 | 1.04 | 1.08
D fixed | 0.214 | 0.135 | 0.665 | 0.726 | 0.643 | 0.632 | 0.992 | 0.893 | 0.987
E fixed | 0.31 | 0.115 | 0.655 | 0.643 | 0.517 | 0.59 | 0.941 | 1.01 | 0.859
F fixed | 1.22 | 0.19 | 0.874 | 0.928 | 1.08 | 0.688 | 0.88 | 0.875 | 1.06
G fixed | 1.05 | 0.226 | 1.2 | 1.11 | 0.767 | 0.947 | 1.5 | 1.18 | 1.09
H fixed | 1.41 | 0.573 | 0.984 | 0.976 | 1.06 | 0.738 | 1.04 | 1.09 | 1.07
I fixed | 0.221 | 0.173 | 0.598 | 0.864 | 0.897 | 1.17 | 0.869 | 0.869 | 0.831
K fixed | 0.432 | 0.992 | 1.61 | 1.41 | 1.11 | 0.651 | 0.9 | 0.997 | 1.26
L fixed | 0.27 | 0.189 | 0.85 | 0.95 | 1.55 | 1.53 | 0.985 | 0.959 | 0.754
M fixed | 0.369 | 0.17 | 0.799 | 0.964 | 1.28 | 1.31 | 0.972 | 0.951 | 0.815
N fixed | 0.436 | 0.247 | 0.863 | 0.853 | 0.789 | 0.944 | 0.965 | 1.04 | 0.89
P fixed | 4.86 | 0.192 | 1.05 | 1.11 | 0.93 | 2.07 | 1.1 | 1.06 | 1.19
Q fixed | 0.578 | 0.498 | 0.897 | 1.02 | 0.888 | 1.01 | 1.02 | 1.03 | 1.04
R fixed | 1.04 | 12.5 | 2.31 | 1.46 | 1.23 | 0.817 | 0.928 | 1.1 | 1.24
V fixed | 0.421 | 0.184 | 0.792 | 0.841 | 0.933 | 1.13 | 0.864 | 0.941 | 0.914
W fixed | 0.758 | 0.232 | 0.825 | 1.17 | 1.06 | 0.719 | 0.88 | 1.02 | 0.864
Y fixed | 1.44 | 0.225 | 0.903 | 0.866 | 1.34 | 0.69 | 0.872 | 0.956 | 1.07
pThr fixed | 0.325 | 0.205 | 0.653 | 0.578 | 0.415 | 0.772 | 0.936 | 0.887 | 0.904
pTyr fixed | 0.601 | 0.177 | 0.592 | 0.512 | 0.486 | 0.681 | 0.862 | 0.905 | 1.01

DYRK2, construct: Full length (from UniProt Q92630)
relative phosphorylation
Settings | at +1 | at +2 | at +3 | at +4 | at -1 | at -2 | at -3 | at -4 | at -5
A fixed | 0.832 | 1.06 | 0.927 | 0.956 | 1.27 | 2.04 | 0.9 | 0.971 | 1.08
D fixed | 0.164 | 1.08 | 0.82 | 1.14 | 0.655 | 0.308 | 0.592 | 0.84 | 0.894
E fixed | 0.214 | 0.977 | 0.792 | 0.8 | 0.788 | 0.307 | 0.529 | 0.922 | 0.857
F fixed | 0.209 | 0.977 | 0.929 | 1.23 | 0.7 | 0.518 | 0.457 | 0.843 | 1.03
G fixed | 0.62 | 0.756 | 1.59 | 1.17 | 1.17 | 0.984 | 1.78 | 1.05 | 1.16
H fixed | 0.227 | 0.923 | 0.915 | 0.967 | 0.948 | 0.562 | 0.796 | 0.894 | 1.14
I fixed | 0.368 | 1.26 | 0.8 | 0.996 | 0.702 | 0.897 | 0.571 | 0.843 | 0.833
K fixed | 0.357 | 0.502 | 0.548 | 0.832 | 1.12 | 0.495 | 0.756 | 0.859 | 0.859
L fixed | 0.307 | 1.45 | 1.1 | 0.987 | 0.823 | 0.98 | 0.635 | 0.861 | 0.878
M fixed | 0.314 | 1.48 | 1.05 | 1.22 | 1.16 | 0.915 | 0.608 | 0.969 | 0.843
N fixed | 0.304 | 1.08 | 0.838 | 0.928 | 0.877 | 0.781 | 0.691 | 0.771 | 0.846
P fixed | 9.47 | 0.703 | 2.79 | 1.16 | 1.68 | 2.97 | 0.988 | 1.26 | 0.99
Q fixed | 0.466 | 1.1 | 0.893 | 0.992 | 1.05 | 0.597 | 0.735 | 0.826 | 0.819
R fixed | 1.99 | 0.629 | 0.707 | 0.778 | 1.5 | 2.44 | 5.23 | 2.46 | 1.69
V fixed | 0.772 | 1.23 | 0.682 | 0.918 | 0.898 | 1.28 | 0.573 | 0.781 | 0.833
W fixed | 0.193 | 0.958 | 0.902 | 0.984 | 0.627 | 0.487 | 0.571 | 0.997 | 1.01
Y fixed | 0.195 | 0.829 | 0.72 | 0.932 | 1.04 | 0.444 | 0.588 | 0.853 | 1.24
pThr fixed | 0.399 | 1.77 | 0.745 | 1.28 | 0.415 | 0.56 | 0.647 | 1.03 | 1.03
pTyr fixed | 0.476 | 0.786 | 0.709 | 0.928 | 0.953 | 0.452 | 0.79 | 1.19 | 1.19

CDK6, construct: Full length (from UniProt Q00534)
relative phosphorylation
Settings | at +1 | at +2 | at +3 | at +4 | at -1 | at -2 | at -3 | at -4 | at -5
A fixed | 0.249 | 0.659 | 0.594 | 0.709 | 0.827 | 0.895 | 1.21 | 1.02 | 1.04
D fixed | 0.113 | 0.259 | 0.209 | 0.504 | 0.48 | 0.316 | 0.476 | 0.884 | 0.866
E fixed | 0.11 | 0.238 | 0.174 | 0.424 | 0.473 | 0.406 | 0.66 | 0.859 | 0.909
F fixed | 0.353 | 0.811 | 0.529 | 0.795 | 0.908 | 1.1 | 0.978 | 0.852 | 0.979
G fixed | 1.39 | 0.731 | 0.681 | 1.15 | 1.29 | 0.73 | 1.42 | 1.04 | 1.23
H fixed | 0.295 | 1.24 | 1.06 | 1.23 | 1.11 | 1.16 | 1.2 | 1.11 | 1.18
I fixed | 0.308 | 1.04 | 0.461 | 0.746 | 0.493 | 0.878 | 0.932 | 0.757 | 0.669
K fixed | 0.303 | 1.83 | 3.16 | 1.64 | 1.23 | 0.788 | 1.03 | 1.35 | 1.57
L fixed | 0.344 | 1.1 | 0.458 | 0.785 | 1.14 | 1.29 | 1.08 | 0.85 | 0.773
M fixed | 0.328 | 1.01 | 0.581 | 0.891 | 1.28 | 1.5 | 1.03 | 0.867 | 0.736
N fixed | 0.211 | 0.885 | 0.747 | 0.957 | 0.746 | 0.783 | 0.827 | 1.19 | 1.04
P fixed | 11.6 | 0.494 | 0.862 | 1.01 | 1.26 | 2.2 | 1.15 | 1.07 | 1.24
Q fixed | 0.258 | 0.905 | 0.702 | 1.03 | 1.04 | 0.894 | 0.865 | 1.05 | 0.99
R fixed | 0.31 | 3.29 | 5 | 2.44 | 1.78 | 0.969 | 1.33 | 1.15 | 1.31
V fixed | 0.315 | 0.956 | 0.513 | 0.724 | 0.64 | 0.835 | 0.886 | 0.673 | 0.68
W fixed | 0.285 | 0.665 | 0.58 | 1.13 | 1.08 | 1.06 | 0.92 | 1.25 | 0.721
Y fixed | 0.24 | 0.887 | 0.688 | 0.829 | 1.23 | 1.19 | 1.02 | 1.05 | 1.06
pThr fixed | 0.326 | 0.502 | 0.433 | 0.336 | 0.25 | 0.548 | 0.725 | 0.882 | 0.934
pTyr fixed | 0.339 | 0.36 | 0.486 | 0.349 | 0.324 | 0.798 | 0.81 | 1.12 | 1.34
